According to paper PMC9482650, “Quantitative fragmentomics allow affinity mapping of interactomes” (Nature Communications, 2022):

Experiments:
Test in all cases: holdup assay
Set-up in all cases: key: below the threshold = too weak to quantify, mostly under pKd 3.1 to 4
Conditions in all cases: plain residues with an end cap or a label only (N-terminal biotin on a linker: ado-ado)
APBA2_2, Q99767 = biological target: T1, APBA2_2, Q99767
T1 sequence (Q99767 654-744, limits assumed, looked up): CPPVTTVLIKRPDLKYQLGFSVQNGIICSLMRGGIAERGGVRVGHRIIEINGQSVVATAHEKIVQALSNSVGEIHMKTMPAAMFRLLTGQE

TJP1_3, Q07157 = biological target: TJP1_3, Q07157
Chain of TJP1_3, Q07157 (Q07157 416-512): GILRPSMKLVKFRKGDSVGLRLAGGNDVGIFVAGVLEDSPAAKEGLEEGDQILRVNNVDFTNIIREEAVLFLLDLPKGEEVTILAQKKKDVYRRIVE

MAGI1_1, Q96QZ7 = biological target: MAGI1_1, Q96QZ7
Chain of MAGI1_1, Q96QZ7 (Q96QZ7 1-106): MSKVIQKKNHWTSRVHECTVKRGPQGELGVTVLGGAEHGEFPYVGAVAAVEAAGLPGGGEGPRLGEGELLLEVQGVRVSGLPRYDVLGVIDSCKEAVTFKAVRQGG

MAST1, Q9Y2H9 = biological target: MAST1, Q9Y2H9
Chain of MAST1, Q9Y2H9 (Q9Y2H9 962-1065): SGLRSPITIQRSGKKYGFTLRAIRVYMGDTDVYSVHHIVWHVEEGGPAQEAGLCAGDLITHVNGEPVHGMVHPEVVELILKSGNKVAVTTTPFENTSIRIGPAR

PDZD7_3, Q9H5P4 = biological target: T2, PDZD7_3, Q9H5P4
T2 sequence (Q9H5P4 857-944, limits assumed, looked up): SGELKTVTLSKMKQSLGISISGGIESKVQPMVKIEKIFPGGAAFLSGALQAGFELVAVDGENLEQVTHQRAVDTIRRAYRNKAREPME

DLG4_3, P78352 = biological target: DLG4_3, P78352
Chain of DLG4_3, P78352 (P78352 306-403): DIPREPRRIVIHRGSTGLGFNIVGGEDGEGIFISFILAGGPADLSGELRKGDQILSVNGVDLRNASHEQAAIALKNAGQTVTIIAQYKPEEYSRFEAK

GOPC, Q9HD26 = biological target: GOPC, Q9HD26
MPDZ_12, O75970 = biological target: T3, MPDZ_12, O75970
T3 sequence (O75970 1857-1958, limits assumed, looked up): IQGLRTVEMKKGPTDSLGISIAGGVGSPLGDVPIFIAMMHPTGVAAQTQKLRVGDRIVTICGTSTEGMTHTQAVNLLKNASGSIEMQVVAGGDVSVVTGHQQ

Inadl_8, Q8NI35 = biological target: Inadl_8, Q8NI35
Chain of Inadl_8, Q8NI35 (Q8NI35 1425-1530): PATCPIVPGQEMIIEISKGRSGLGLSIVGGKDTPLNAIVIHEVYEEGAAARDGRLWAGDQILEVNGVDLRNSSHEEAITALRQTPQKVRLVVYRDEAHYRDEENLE

NHERF2_2, Q15599 = biological target: NHERF2_2, Q15599
Chain of NHERF2_2, Q15599 (Q15599 142-238): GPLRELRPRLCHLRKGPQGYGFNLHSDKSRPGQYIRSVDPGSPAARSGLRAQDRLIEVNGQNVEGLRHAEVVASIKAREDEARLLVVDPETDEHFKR

GRID2IP_1, A4D2P6 = biological target: GRID2IP_1, A4D2P6
Chain of GRID2IP_1, A4D2P6 (A4D2P6 1-87): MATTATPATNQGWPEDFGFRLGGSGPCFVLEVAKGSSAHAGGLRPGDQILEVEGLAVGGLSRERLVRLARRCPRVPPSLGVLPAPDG

PDZRN4_1, Q6ZMN7 = biological target: PDZRN4_1, Q6ZMN7
Chain of PDZRN4_1, Q6ZMN7 (Q6ZMN7 213-318): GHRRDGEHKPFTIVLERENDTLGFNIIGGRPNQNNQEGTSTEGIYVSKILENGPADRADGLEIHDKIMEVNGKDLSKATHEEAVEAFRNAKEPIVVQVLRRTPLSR

CASK, O14936 = biological target: CASK, O14936
Chain of CASK, O14936 (O14936 487-570): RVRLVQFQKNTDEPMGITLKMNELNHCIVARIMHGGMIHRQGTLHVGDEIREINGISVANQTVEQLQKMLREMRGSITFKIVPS

FRMPD2_2, Q68DX3 = biological target: FRMPD2_2, Q68DX3
Chain of FRMPD2_2, Q68DX3 (Q68DX3 944-1038): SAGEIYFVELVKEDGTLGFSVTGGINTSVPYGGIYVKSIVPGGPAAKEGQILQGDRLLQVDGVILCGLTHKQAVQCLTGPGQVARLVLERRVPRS

GRIP1_3, Q9Y3R0 = biological target: T4, GRIP1_3, Q9Y3R0
T4 sequence (Q9Y3R0 247-346, limits assumed, looked up): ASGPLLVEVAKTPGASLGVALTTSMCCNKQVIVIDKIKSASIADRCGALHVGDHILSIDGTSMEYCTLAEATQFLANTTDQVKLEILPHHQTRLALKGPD

GRIP1_7, Q9Y3R0 = biological target: T5, GRIP1_7, Q9Y3R0
T5 sequence (Q9Y3R0 999-1096, limits assumed, looked up): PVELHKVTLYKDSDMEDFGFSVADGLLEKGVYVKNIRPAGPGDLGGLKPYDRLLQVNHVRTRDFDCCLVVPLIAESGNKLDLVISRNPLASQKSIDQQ

APBA1_1, Q02410 = biological target: T6, APBA1_1, Q02410
T6 sequence (Q02410 651-752, limits assumed, looked up): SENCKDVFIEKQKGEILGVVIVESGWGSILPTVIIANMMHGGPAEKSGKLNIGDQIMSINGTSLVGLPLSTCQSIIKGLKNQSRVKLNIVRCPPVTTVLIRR

DLG4_2, P78352 = biological target: DLG4_2, P78352
Chain of DLG4_2, P78352 (P78352 155-259): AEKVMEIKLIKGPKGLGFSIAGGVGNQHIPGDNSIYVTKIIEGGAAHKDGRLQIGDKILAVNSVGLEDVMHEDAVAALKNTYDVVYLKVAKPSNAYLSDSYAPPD

DFNB31_2, Q9P202 = biological target: T7, DFNB31_2, Q9P202
T7 sequence (Q9P202 274-371, limits assumed, looked up): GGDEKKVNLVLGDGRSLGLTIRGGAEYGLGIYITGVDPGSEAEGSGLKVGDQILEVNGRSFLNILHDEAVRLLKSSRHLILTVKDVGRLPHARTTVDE

DFNB31_3, Q9P202 = biological target: T8, DFNB31_3, Q9P202
T8 sequence (Q9P202 811-907, limits assumed, looked up): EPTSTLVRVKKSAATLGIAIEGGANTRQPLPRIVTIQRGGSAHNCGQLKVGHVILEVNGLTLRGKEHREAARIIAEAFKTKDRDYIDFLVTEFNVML

SYNJ2BP, P57105 = biological target: T9, SYNJ2BP, P57105
T9 sequence (P57105 8-110, limits assumed, looked up): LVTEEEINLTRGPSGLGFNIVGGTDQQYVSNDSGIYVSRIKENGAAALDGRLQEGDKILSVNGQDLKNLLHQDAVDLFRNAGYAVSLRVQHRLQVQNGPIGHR

PTPN13_1, Q12923 = biological target: T10, PTPN13_1, Q12923
T10 sequence (Q12923 1088-1188, limits assumed, looked up): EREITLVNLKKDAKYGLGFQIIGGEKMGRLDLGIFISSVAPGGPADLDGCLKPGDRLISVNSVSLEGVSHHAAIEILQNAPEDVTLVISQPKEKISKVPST

GRIP2_3, Q9C0E4 = biological target: GRIP2_3, Q9C0E4
Chain of GRIP2_3, Q9C0E4 (Q9C0E4 238-339): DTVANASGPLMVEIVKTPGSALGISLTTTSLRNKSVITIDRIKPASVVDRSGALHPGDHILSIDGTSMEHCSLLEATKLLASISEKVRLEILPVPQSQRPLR

MPP6, Q9NZW5 = biological target: T11, MPP6, Q9NZW5
T11 sequence (Q9NZW5 125-219, limits assumed, looked up): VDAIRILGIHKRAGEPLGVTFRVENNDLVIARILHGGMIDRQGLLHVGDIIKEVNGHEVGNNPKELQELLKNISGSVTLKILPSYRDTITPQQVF

MAGI1_2, Q96QZ7 = biological target: MAGI1_2, Q96QZ7
Chain of MAGI1_2, Q96QZ7 (Q96QZ7 456-580): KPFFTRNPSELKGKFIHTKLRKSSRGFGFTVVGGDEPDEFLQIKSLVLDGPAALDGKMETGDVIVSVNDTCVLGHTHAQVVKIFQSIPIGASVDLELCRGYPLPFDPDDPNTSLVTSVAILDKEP

SHANK1, Q9Y566 = biological target: T12, SHANK1, Q9Y566
T12 sequence (Q9Y566 658-767, limits assumed, looked up): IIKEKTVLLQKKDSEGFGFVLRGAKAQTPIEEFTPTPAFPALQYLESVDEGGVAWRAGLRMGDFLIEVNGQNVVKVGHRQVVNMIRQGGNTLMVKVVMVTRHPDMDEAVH

| Binder | pKd (APBA2_2, Q99767) | pKd (TJP1_3, Q07157) | pKd (MAGI1_1, Q96QZ7) | pKd (MAST1, Q9Y2H9) | pKd (PDZD7_3, Q9H5P4) | pKd (DLG4_3, P78352) | pKd (GOPC, Q9HD26) | pKd (MPDZ_12, O75970) | pKd (Inadl_8, Q8NI35) | pKd (NHERF2_2, Q15599) | pKd (GRID2IP_1, A4D2P6) | pKd (PDZRN4_1, Q6ZMN7) | pKd (CASK, O14936) | pKd (FRMPD2_2, Q68DX3) | pKd (GRIP1_3, Q9Y3R0) | pKd (GRIP1_7, Q9Y3R0) | pKd (APBA1_1, Q02410) | pKd (DLG4_2, P78352) | pKd (DFNB31_2, Q9P202) | pKd (DFNB31_3, Q9P202) | other results |
| --- | --- | --- | --- | --- | --- | --- | --- | --- | --- | --- | --- | --- | --- | --- | --- | --- | --- | --- | --- | --- | --- |
| TKGPRGPTRV [SAPCD1, Q5SSQ6] | below the threshold | below the threshold | below the threshold | 4.09 | 4.74 | 4.59 | 4.19 | below the threshold | 5.64 | below the threshold | below the threshold | 3.67 | below the threshold | below the threshold | below the threshold | below the threshold | below the threshold | 4.53 | below the threshold | below the threshold | pKd (SYNJ2BP, P57105): 4.25; pKd (PTPN13_1, Q12923): below the threshold; pKd (GRIP2_3, Q9C0E4): below the threshold; pKd (MPP6, Q9NZW5): below the threshold; pKd (MAGI1_2, Q96QZ7): 4.19; pKd (SHANK1, Q9Y566): 4.26 |
| SNAGNTATKA [NOSTRIN, Q8IVI9] | below the threshold | below the threshold | below the threshold | below the threshold | below the threshold | 3.5 | below the threshold | below the threshold | below the threshold | below the threshold | below the threshold | below the threshold | below the threshold | below the threshold | below the threshold | below the threshold | below the threshold | below the threshold | below the threshold | below the threshold | pKd (SYNJ2BP, P57105): below the threshold; pKd (PTPN13_1, Q12923): below the threshold; pKd (GRIP2_3, Q9C0E4): below the threshold; pKd (MPP6, Q9NZW5): below the threshold; pKd (MAGI1_2, Q96QZ7): below the threshold; pKd (SHANK1, Q9Y566): below the threshold |
| QGPVETESVV [SLC45A4, Q5BKX6] | below the threshold | below the threshold | below the threshold | 4.36 | 4.56 | below the threshold | 3.54 | 3.5 | 3.7 | 3.63 | below the threshold | 3.64 | below the threshold | 4.19 | below the threshold | below the threshold | below the threshold | 4.59 | below the threshold | below the threshold | pKd (SYNJ2BP, P57105): 4.49; pKd (PTPN13_1, Q12923): below the threshold; pKd (GRIP2_3, Q9C0E4): below the threshold; pKd (MPP6, Q9NZW5): below the threshold; pKd (MAGI1_2, Q96QZ7): below the threshold; pKd (SHANK1, Q9Y566): below the threshold |
